The record followed here is patent US20070141048A1 (SYMPHOGEN A S, published 2007).

Residue numbers refer to the chain shown, from its start.

The chains are these.
T1: Ovalbumin (UniProt P01012 2-386)
T1 sequence: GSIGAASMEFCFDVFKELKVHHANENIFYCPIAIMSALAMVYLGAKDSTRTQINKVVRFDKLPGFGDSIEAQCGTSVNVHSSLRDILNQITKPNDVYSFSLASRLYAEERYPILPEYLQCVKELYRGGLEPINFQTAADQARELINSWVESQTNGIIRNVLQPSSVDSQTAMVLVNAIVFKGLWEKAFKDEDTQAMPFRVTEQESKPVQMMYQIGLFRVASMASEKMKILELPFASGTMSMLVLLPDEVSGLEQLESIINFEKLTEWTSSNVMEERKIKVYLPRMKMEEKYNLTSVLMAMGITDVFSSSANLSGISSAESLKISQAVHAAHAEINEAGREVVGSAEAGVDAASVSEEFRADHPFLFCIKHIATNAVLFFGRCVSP

B1: g060b10 (Fab, V domains shown)
VH: KVQLVESGAEVKKPGATVRVSCKASGYRFNDYCISWVRQAPGQGLEWMGWINGNNADTFYAPKLQGRVTMSTDTSTSTAYMELRNLRSDDTAVYFCARDRGRITLFGEVILRAGWFDSWGQGTLVTVS
VL: EIVMTQSPSSLSASVGDRVTITCQASQDISKYLNWYQQKPGRAPKLLIYEASNLETGVPPRFSGSGSGTHFTFTITGLQPEDIATYYCQQCDSLPPVFGQGTKLEVK
B2: g060b06 (Fab, V domains shown)
VH: QVQLQESGGGVVQPGTSLRLSCVVSGFTFRTYGMNWVRQAPGKVLEWLAFVSSDGSDEFYADSVKGRFTVSRDNSKSTLFLKMNSLRADDTAVYYCARDRGAQITLFGAPLIRPSSFDSWGQGTLVTVS
VL: EIVLTQSPSSLSASVGDRITITCQASQDITNYLNWYQQKPGKAPKLLIYDASNLQPGVPSRFSGSRSGTDFTFTISSLRPEDIATYYCQQYDGPVLTFGGGTKVEIK
B3: g060a04 (Fab, V domains shown)
VH: B2 VH with Q1K, Q5V, V44G, V51L, A88P
VL: B2 VL with E1D, I2V, L4M, I19V, R66G, G68V
B4: g060h11 (Fab, V domains shown)
VH: QVTLKESGPTVVKPTQTLTLTCSLSGFALGTTGVAVGWIRQPPGKALEWLGLIDWNDDRRYRPSLKTRLTITQDMSRNQVVLRLTNLDPLDTGTYFCARSVVPATRAFDFWGQGTLVTVS
VL: DIQMTQSSSTLSASVGDRVTITCRASQNINIWLAWYQQKAGKAPKLLIYKASTLERGVPSRFSGSGSGTEFTLTITGLRPDDFGSYYCQHYDGNSLTFGQGTRVDIQ
B5: g060f02 (Fab, V domains shown)
VH: KVQLVQSGAEVKKPGTSVRVSCKTSGGYVFSWVRQAPGHGPEWMGGIITNFGTATYAQKFQGRVSITADTSTNTFYMDLNNLKSDDTAVYYCASAPRDTSTIAARFNRYFFDFWGPGTLVTVS
VL: DVVMTQSPGTLSLSPGERATLSCRASQSVNSNNLAWYQQKPGQAPRLLVSGATNRATDIPDRFSGSGSGTDFTLTISRLEPEDFAVYYCHQYGSSENTFGQGTKLEIR
B6: g060g07 (Fab, V domains shown)
VH: QVQLQQSGPGLVKPSETLPLTCTVSGGSFSTYYWSWIRQSPEKGLEWIGYIQNSVNTNYNPSLKSRVIISVDTSNNQFSLKLRSVTAADTAVYYCARVSGWGPRGGIYFDYWGQGTLVTVS
VL: DIQMTQSPSSLSASVSDRVTITCRASQSINKFLNWYQQKPGKAPQLLIYAATNLQSGVPSRFSGSGSGTDFTLTISSLQTEDFATYYCQQSYDMPRTFGQGTKVEIK
B7: g060d08 (Fab, V domains shown)
VH: KVQLVESGGGLVKPGGSLRLSCAASGFSFSNNNMNWVRQTPGKGLEWVASISFGSHYISYADSVKGRFTISRDNARNAVYLQMNSLRVEDTAVYYCTRCRGGTRTYYYMDVWGKGTMVTVS
VL: DVVMTQSPGTLALSPGDRATLSCGASQSVFGDFLAWYQHKPGQAPRLLIYVASTRATGIPDRFSGSGAGTDFTLTISRLEPEDFAVYFCQQYGDSVFTFGQGTKLEIR
B8: g060f06 (Fab, V domains shown)
VH: B7 VH with K1Q, V5Q, E6Q, M117L
VL: B7 VL with D1E, V2I, L47P, V51G, R108K
B9: g060c04 (Fab, V domains shown)
VH: QMQLVQSGAEVKKPGSSVKVSCQSSGGPPKSYTLSWVRQAPGQGPEWMGGIILIFGPPNYAQKFQDRLTITADKSTNTVYMELSSLRSDDTAMYYCVTAPDDTGTILARHNRYYFDSWGQGTLVTVS
VL: EIVLTQSPGTLSLSPGQRATLSCRASQSVNRDYLAWYQQKPGQAPRLLIYGASSRATGIPDRFSGSGSGTDFTLTISRLERDDFAVYFCHQYGSSPNTFGQGTKLEIK

In the test the target is T1, Ovalbumin. Briefly: ELISA, periplasmic extract on coated Ovalbumin.
In the case of B1, the binding result is given as “no binding (tested: 10 µg/ml Ovalbumin coat)”.

On to B2, for which the binding result was “no binding (tested: 10 µg/ml Ovalbumin coat)”.

On to B3, for which the binding result is listed as “no binding (tested: 10 µg/ml Ovalbumin coat)”.

Consider B4, for which the binding result was “no binding (tested: 10 µg/ml Ovalbumin coat)”.

For the molecule B5, the binding result is “no binding (tested: 10 µg/ml Ovalbumin coat)”.

Turning to B6, the binding result is given as “no binding (tested: 10 µg/ml Ovalbumin coat)”.

On to B7, for which the binding result is recorded as “no binding (tested: 10 µg/ml Ovalbumin coat)”.

With B8, the binding result is given as “no binding (tested: 10 µg/ml Ovalbumin coat)”.

For B9, the binding result is reported as “no binding (tested: 10 µg/ml Ovalbumin coat)”.
